{"source": "paper PMC9223585", "about": "“Structural and Functional Insights into CP2c Transcription Factor Complexes” (International Journal of Molecular Sciences, 2022)", "proteins": {"B1": {"name": "CP2c (TFCP2), endogenous human (natural protein, human (endogenous in MDA-MB-231), UniProt Q12800-1 1-502, looked up)", "chain": "MAWALKLPLADEVIESGLVQDFDASLSGIGQELGAGAYSMSDVLALPIFKQEESSLPPDNENKILPFQYVLCAATSPAVKLHDETLTYLNQGQSYEIRMLDNRKLGELPEINGKLVKSIFRVVFHDRRLQYTEHQQLEGWRWNRPGDRILDIDIPMSVGIIDPRANPTQLNTVEFLWDPAKRTSVFIQVHCISTEFTMRKHGGEKGVPFRVQIDTFKENENGEYTEHLHSASCQIKVFKPKGADRKQKTDREKMEKRTPHEKEKYQPSYETTILTECSPWPEITYVNNSPSPGFNSSHSSFSLGEGNGSPNHQPEPPPPVTDNLLPTTTPQEAQQWLHRNRFSTFTRLFTNFSGADLLKLTRDDVIQICGPADGIRLFNALKGRMVRPRLTIYVCQESLQLREQQQQQQQQQQKHEDGDSNGTFFVYHAIYLEELTAVELTEKIAQLFSISPCQISQIYKQGPTGIHVLISDEMIQNFQEEACFILDTMKAETNDSYHIILK", "notes": "transcription factor CP2c (TFCP2, LBP-1c), endogenous in the human breast cancer line MDA-MB-231; both are human cells; also called α-CP2; LSF; source: endogenous, MDA-MB-231 nuclear and cytosolic lysate"}}, "biological_target": "the molecule itself", "assay": "cross-linking + co-IP; DSP XL-WB: nuclear extracts of MDA-MB-231 cells, Benzonase, 2 mM DSP 30 min at room temperature, IP with CP2c, CP2b or PIAS1 antibodies, sequential Western blot with and without DTT", "data": [{"protein": "B1", "values": [{"measurement": "stoichiometry N", "value": 4}]}]}
